This assay has as its target Ageratum yellow vein virus capsid protein (CP), in the geminate virus particle (Ageratum yellow vein virus). As to the kind of experiment: cryo-EM structure; single-particle cryo-EM of purified AYVV geminate particles, D5 symmetry, 3.3 Å; particles in 100 mM sodium phosphate pH 7.0; capsid holds the genomic ssDNA.

The term stoichiometry N denotes the number of molecules, sites or subunits per partner or assembly. Turning to “Ageratum yellow vein virus capsid protein (CP), in the geminate virus particle (natural protein)”, the stoichiometry N turned out to be 110.

The values above are taken from PMC6006435.
